For the assay, the target named is purified recombinant full-length PNKP (human) (UniProt Q96T60).

In the case of “ATXN3-Q29 (WT with 29 polyQ repeats) (from UniProt P54252 1-361) (natural protein)”, the 3'-phosphatase activity of PNKP (50 fmol) in vitro with 25-400 fmol ATXN3-Q29: stimulation worked out at 4 fold. Consider “ATXN3-Q72 (the pathological form with 72 polyQ repeats) (from UniProt P54252 1-361) (natural protein)”, for which the 3'-phosphatase activity of PNKP (50 fmol) in vitro with 50-200 fmol ATXN3-Q72: decrease turned out to be 3.5 fold.

The values above are taken from article PMC4310589.
